Results published in patent publication US20050154189A1 (MAXYGEN, published 2005).
Substitutions are numbered along the chain they refer to.

B1: Round 2 CD28B6-6 (ligand)
chain: ITPKSVTKRVKETVMLSCDYSTSTEELTSLRIYWQKDSKMVLAILPGKVQVWPEYKNRTITDMNDNPRIVILALRLSDKGTYTCVIQKPVLKGAYKLEHLTSVTLSIRADFPVPSITDIGHPAPNVKRIRCSASGGFPEPRLAWMEDGEELNAVNTTVDQDLDTELYSVSSELDFNATNNHSIVCLIKYGELSVSQIFPWSKPKQEPPIDQLPFWVIVPVSGALVLTAVVLYCLACRHVAR
B2: Round 2 CD28D10-4 (ligand)
chain: SGITPKSVTKRVKETVMLSCDYNTSTEELTSLRIYWQKDSKMVLAILPGKVQVWPEYKNRTITDMNDNPRIVILALRLSDKGTYTCVVQKNENGSFRREHLTSVTLSIRADFPVPSITDIGHPAPNVKRIRCSASGGFPEPRLAWMEDGEELNAVNTTVDQDLDTELYSVSSELDFNVTNNHSIVCLIKYGELSVSQIFPWSKPKQEPPIDQLPFWVIIPVSGALVLTAVVLYCLACRHVARWKRTRRNEETVGTERLSPIYLGSAQSSG
B3: Round 2 CD28BP-11 (ligand)
chain: B2 chain with T24A
B4: Round 2 CD28F3-5 (ligand)
chain: B2 chain with K81S
B5: Round 2 CD28G1-5 (ligand)
chain: SGITPKSVTKRVKETVMLSCDYSTSTEELTSLRIYWQKDSKMVLAILPGKVQVWPEYKNRTFPDIINNLSLMILALRLSDKGTYTCVVQKNENGSFRREHLTSVTLSIRADFPVSSITDIGHPAPNVKRIRCSASGGFPEPRLAWMEDGEELNAVNTTVDQDLDTELYSVSSELDFNVTNNHSIVCLIKYGELSVSQIFPWSKPKQEPPIDQLPFWVIIPVSGALVLTAVVLYCLACRHVARWKRTRRNEETVGTERLSPIYLGSAQSSG
B6: Round 2 CD28BP-17 (ligand)
chain: B5 chain with S115P, G137D, A229V
B7: Round 2 CD28A8-6 (ligand)
chain: B2 chain with L18P, N23S, K81S
B8: Round 2 CD28BP-13 (ligand)
chain: ITPKSVTKRVKETVMLSCDYSTSTEELTSLRIYWQKDSKMVLAILPGKVQVWPEYKNRTITDMNDNPRIVILALRLSDSGTYTCVIQKPVLKGAYKLEHLASVRLMIRADFPVPTINDLGNPSPNIRRLICSTSGGFPEPRLAWMEDGEELNAVNTTVDQDLDTELYSVSSELDFNVTNNHSIVCLIKYGELSVSQIFPWSKPKQEPPIDQLPFWVIIPVSGALVLTAVVLYCLACRHVARWKRTRRNEETVGTERLSPIYLGSAQSSG
B9: Round 2 CD28D8-9 (ligand)
chain: ITPKSVTKRVKETVMLSCDYSTSTEELTSLRIYWQKDSKMVLAILPGKVQVWPEYKNRTITDMNDNPRIVILALRLSDSGTYTCVIQKPVLKGAYKLEHLTSVRLMIRADFPVPTINDLGNPSPNIRRLICSTSGGFPRPHLYWLENGEELNATNTTVSQDPGTELYMISSELDFNVTNNHSIVCLIKYGELSVSQIFPWSKPKQEPPIDQLPFWVIIPVSGALVLTAVVLYCLACRHVARWKRTRRNEETVGTERLSPIYLGSAQSSG
B10: Round 2 CD28F3-6 (ligand)
chain: B9 chain with V90D, V158L, G163E, E165K
B11: Round 2 CD28C11-5 (ligand)
chain: B9 chain with S21N, V184A
B12: Round 2 CD28E10-6 (ligand)
chain: B9 chain with S21N, T101A, V158L, G163E
B13: Round 2 CD28D2-9 (ligand)
chain: B9 chain with S21N, V158L, G163E
B14: Round 2 CD28F7-2 (ligand)
chain: B8 chain
B15: Round 2 CD28G2-8 (ligand)
chain: B9 chain with S21N, T101A, T115S
B16: Round 2 CD28E9-6 (ligand)
chain: B9 chain with S21N, S79K, V90D, T101A
B17: Round 2 CD28BP-16 (ligand)
chain: B9 chain with S21N, T227A
B18: Round 2 CD28E2-4 (ligand)
chain: B9 chain with S79K, T101A
B19: Round 2 CD28F8-4 (ligand)
chain: B9 chain with T101A, V158L, G163E, E165K
B20: Round 2 CD28C6-1 (ligand)
chain: B9 chain with T101A, V239G
B21: Round 2 CD28H11-3 (ligand)
chain: B9 chain with S21N, T101A, V158L, G163E, E165K, V229A
B22: Round 2 CD28C8-6 (ligand)
chain: B9 chain with S21N, T101A, D174G
B23: Round 2 CD28E5-2 (ligand)
chain: B9 chain with S21N, V90D, T101A, V158L, G163E, E165K, H181R
B24: Round 2 CD28BP-14 (ligand)
chain: GISQVTKSVKEMAALSCDYNISIDELARMRIYWQKDQQMVLSIISGQVEVWPEYKNRTITDMNDNPRIVILALRLSDSGTYTCVIQKPVLKGAYKLEHLASVRLMIRADFPVPTINDLGNPSPNIRRLICSTSGGFPRPHLYWLENGEELNATNTTVSQDPGTELYMISSELDFNVTNNHSIVCLIKYGELSVSQIFPWSKPKQEPPIDQLPFWVIIPVSGALVLTAVVLYCLACRHVARWKRTRRNEETVGTERLSPIYLGSAQSSG
B25: Round 2 CD28BP-8 (ligand)
chain: ITPKSVTKRVKETVMLSCDYNTSTEELTSLRIYWQKDSKMVLAILPGKVQVWPEYKNRTITDMNDNPRIVILALRLSDSGTYTCVIQKPVLKGAYKLEHLASVRLMIRADFPVPSITDIGHPAPNVKRIRCSASGGFPEPRLAWMEDGEELNAVNTTVDQDLDTELYSVSSELDSNVTNNHSIVCLIKYGELSVSQIFPWSKPKQEPPIDQLPFWVIIPVSGALVLTAVVLYCLACRHVARWKRTRRNEETVGTERLSPIYLGSAQSSG
notes: also called clone CD28BP-8
B26: Round 2 CD28C7-3 (ligand)
chain: B25 chain with N21S, V90D, A101T, G136D, S175F
B27: Round 1 CD28BP-71 (ligand)
chain: ITPKSVTKRVKETVMLSCDYNTSTEELTSLRIYWQKDSKMVLAILPGKVQVWPEYKNRTITDMNDNPRIVILALRLSDSGTYTCVIQKPVLKGAYKLEHLASVRLMIRADFPVPTINDLGNPSPNIRRLICSTSGGFPRPHLYWLENGEELNATNTTLSQDPETKLYMISSELDFNMTSNHSFLCLVKYGDLTVSQTFYWQESKPTPSANQHLTWTIIIPVSAFGISVIIAVILTCLTCRNAAIRRQRRENEVEMQSCSQSP
notes: also called R1clone71; Clone 71
B28: Round 2 CD28B4-3 (ligand)
chain: B27 chain with A101T
B29: Round 2 CD28B6-3 (ligand)
chain: B27 chain with V90D, A101T, E254K
B30: Round 2 CD28E2-5* (ligand)
chain: B27 chain with I1T, L76P
B31: Round 2 CD28D5-6 (ligand)
chain: B27 chain with N21S, A101T, T197S
B32: Round 2 CD28F3-1 (ligand)
chain: B27 chain with V90D, A101T, E149K
B33: Round 2 CD28E8-6 (ligand)
chain: B27 chain with A101T, L158V, M177T

biological target: T1, Soluble CD28-Ig (human, UniProt P10747 19-152, biotin-conjugated (NHS-biotin) in the labelled-ligand FACS assays); test: two-colour FACS profile on transfected cells; score of preference for CD28-Ig over CTLA-4-Ig vs WT hB7-1
T1 construct: extracellular domain; Bought from R&D Systems; also called sCD28-Ig; CD28-Ig Fc; not shown: Fc portion of human IgG1

| Binder | Binding Score |
| --- | --- |
| B1 | 1 |
| B2 | 0 |
| B3 | 2 |
| B4 | 0 |
| B5 | 1 |
| B6 | 2 |
| B7 | 1 |
| B8 | 2 |
| B9 | 1 |
| B10 | 0 |
| B11 | 2 |
| B12 | 1 |
| B13 | 1 |
| B14 | 2 |
| B15 | 1 |
| B16 | 0 |
| B17 | 2 |

| Binder | Binding Score |
| --- | --- |
| B18 | 1 |
| B19 | 1 |
| B20 | 1 |
| B21 | 1 |
| B22 | 2 |
| B23 | 0 |
| B24 | 2 |
| B25 | 2 |
| B26 | 1 |
| B27 | 1 |
| B28 | 1 |
| B29 | 1 |
| B30 | 0 |
| B31 | 0 |
| B32 | 0 |
| B33 | 0 |
